Measured values published in US10328148B2, “Protein drug formulations and packages” (Purdue Research Foundation, priority 2010, dated 2019).

Tested on: IgG
Assay: HP-SEC of IgG with free Protein A or Protein G: complex formation and agitation-induced aggregation
Format: physicochemical
Conditions: IgG:Protein A or G ratio 1:4, RT 2 h
Procedure: Effect of proteins A and G on aggregation of IgG. High performance size exclusion chromatography (HP-SEC) is used to verify that IgG binds with Protein A or Protein G completely. 50 µL aliquots are injected to a Tosoh TSK G 13000 SWXL Gel 3000 column ([…]×7.8 mm) and separated at a flow rate of 0.5 mL/min. The mobile phase contains 50 mM potassium phosphate and 100 mM K2SO4 at pH 7.1. The relative percentage of IgG monomer and dimer are calculated in triplicate as a percentage of the total chromatographic peak area at 280 nm. Fresh IgG is incubated with free Protein A or free Protein G, respectively, at IgG:Protein A or G ratio of 1:4 at RT for 2 h before being subjected to agitation. […] Effect of agitation of protein A and protein G complexes of IgG. The prior Example 1 is repeated, subjecting the IgG+Protein A or IgG+Protein G to agitation on a shaker at room temperature for 44 h.

B1: Protein G: free Protein G, immunoglobulin-binding protein used as polyamino acid ligand (protein)
chain: TYKLILNGKTLKGETTTEAVDAATAEKVFKQYANDNGVDGEWTYDDATKTFTVTEKPEVIDASELTPAVTTYKLVINGKTLKGETTTEAVDAATAEKVFKQYANDNGVDGEWTYDDATKTFTVTEKPEVIDASELTPAVTTYKLVINGKTLKGETTTKAVDAETAEKAFKQYANDNGVDGVWTYDDATKTFTVTE
Complex formation with IgG by HP-SEC: formation of IgG-Protein A and IgG-Protein G complexes
